The series relates to PAL. In words: plate RNA binding assay (RiboGreen), immobilized PAL. The conditions noted are these: 12 mM HEPES/KOH pH 7.2, 135 mM KCl, 10 mM NaCl, 10% w/v glycerol, 0.5 mg/mL heparin, 0.5 mg/mL BSA, 25 C, 30 min, 465 nm light or dark, 100 or 1000 nM RNA.

As to “GGGAGGACGAUGCGGCCCGUACAGCAGCGAUGCGGGUCGCGUGUCCACCCCGGCUCAGACGACUCGCUGAGGAUCCGAGA [aptamer 53]”, the binding signal (% (normalization reference)) (blue light 465 nm) was 100. For the sequence “GGGGUGGAAUCUUUACAGGACUAUCACGGUACAGCACCGAUGCCGGAUAGUCCUGUAAAGAUUCCACUU [SHCDK1m]”, the binding signal (% of aptamer 53 in light) came to 3.97. The binding signal (% of aptamer 53 in light) (1000 nM RNA, dark (block inferred from row order), mean of 6 printed values) was 1.35.

These data come from paper PMC7518282.
